Laboratory results from a protein production outcome set (Wang et al. 2014).

Assay: label from the status in PepcDB records

Row | Sequence | protein production
1 | MKLILAPMEGLTDPIMRDVLTHVGSFDWCVTEFIRVTDSVLPDHVYYTYCPELKNNGKTAAGTPVHVQFLGNNPDMLAANAEKVVALGAPAIDLNFGCPAKTVNRHRGGSILLDEPDVVHLLVKAVRDAVPAHIPVSAKMRLGYLDENHTMDNAYAIQEAGANWLTVHARTKADGYTPPAYWEKIQPIKDALSINVIANGEIWTNQDAKACQQQSGCEDLMIGRGAVTTPDLTLCIRQNVDEALMNWAALIELQQRFLNGEYKTEIGMIGRYKQWLGMMTKAYPEAKQLWDEIKRIKNLDEILLKLGRSS | failed
2 | MGTTVMVPIYTSTAAASPYSINLASMPPKTVLSKGDEEIAAIALPRQPKFYDLKTADGIPYSHIALLHSNNVLATTVQQTCIRYRDESTVCQFCAIEKSLDAGRTITRKLPEQLAEVTEAAVRLDGIEQVIMTTGTPNSGDRGAAYLTKCAAAIKARVNIPIQAQCEPPDDFIWFERMKAAGVDSLGMHLEAVDPDVRAKIMPGKAEVPVSYYYEAYEAAVKVFGWGQVSTYLLAGLGDSFETLVEASEKLVNMGVYPFVVPFVPISETPLANHPAPDSDFMFALYQRVGTIIKQSQISSVDMKAGCAKCGACSALSTFAKLEHHHHHH | failed
3 | MTAVSSVYAQRLLITLFLVSFGIYLFVATVTYTPFDPGWMHISSDTQNVSNASGVAGAWIADLMFGFLGWASLLIPIFLFIEAIQIWWPRSFLTRPFRYAAQFFIILATSTLLYLYWNVPADTLENASGGIIGFEVGQSLSGLLTIYGATLFLVAFWVLLITLAFGIQWNRTWATLKATPAYLQDLFYKNVSPNESDYDLTEQPKKTASTSKTTVASEQNHQDQVHDQHLEQTTRTDQKAFDTTTKNFVSDEMVEKLFADVVAKEQYAQQQVQAVNTSIEDPAFEQTIQKAHQLEKEAKRLVPTGEVWKALQTDDSTHKQEIDALLRAADDNEPSVTPMTSDELLANLKAQQAQQNHTQPNNHTAKLNWNDDQIFDELLAAMPNSKIGSDIHTPFVEHREDTTPDHTDHLIQQVEQTLQASSNTLQPKNMTNLDEAEEQSDLLTETVEENPSTHYAGQPQNRSFTSNELTAKDQEKLSKEEFIEAWQETAGKPVEDDFDFDAPLTDASGRPMSRAMQVAQKRRDLPTLPGLELLDKVDPNKKVNFTVEQLERLSELLEIKLQEFNVKAKVVEAQPGPVVTRFELDLAPGVKASKVTNISRDLARSMSMASVRVVEVIPGKPYIGIEVPNSSREMVRLIELLETASFRDPAGLLSMAMGKDISGNPVITDLGKAPHMLVAGTTGSGKSVAVNSMILSMLLKYTPDQLRLILIDPKQLELANYNDIPHLLTPVVTDMKDAVSALNWCVNEMERRYKLMSFLKIRKLADYNRKVEEAIANGEDLIDPTWKPSDSATQERAPRLQPLPSIVIVADEFADMIMQVGKKAEEMITRLAQKSRAAGIHLLLATQRPSVDVITGLIKANIPTRVALRVNSKIDSRTILDAGGAEDLLGHGDMLFLGPGKIEPERVHGAFIGDDEVNRICDAWRERGEPNYVDEILTPFDEEPTSRGFEDGGEGASDRDMLYDQCVAFVLETRKASTSSLQRKFSLGYNRAARIIDQMEENGIVSAMGANGKREILV | failed
4 | MGEYCEKDFRSLQRCAEMNNIRIFKFLVILYSLLLIASSFVYYYREDIYIRPESYFYLLTLAVGVTFAQIIFFGRNSRSEVKFLIFVEVLLVALSFTLTQQALYKTVLGRDPWFHWILVEEIVKRGSIPPYEQIPIPYVRMPNFHLVIASGIVLTNLSYKWAQVLFAGFPTLILLMLVAFLYSKKLFDDQVGLVSILLVAISDNVLDMVGKNIVPNTLGVALAFLIFYLIYFREYHNLMIKFLSVLVAIALAFMHTVSLTFLIWQIFVISILSLILKDKSAKFYLAHFAFLIVSALFVWGIYSGFYLKSLVIIFKQLFIYGFDIERYEAKLPTTFLDAVIARSGMVLYFAIAGIITFYLLVKTLKRRAFGIKLSTLSSILATISILAGAVSFLTPALSGIAHRFWYYGEVLSSAFVGSVLANLYERKKVIIVFNLIFICALSMLMFKANVANDDNPLVPYYSQRTGWHDSEIEAGKFVISKQGNIPIASDWDYSWNLRYLKTSLMASGALKDINRVTPKTFEEVKNCNCLFVFRKDLLENRLFYLGGRWTQTPHLPLSTLNLVIKELSENEGIIYNNNNILIMHLV | failed
5 | MLDLLVVAPHPDDGELGCGGTLARAKAEGLSTGILDLTRGEMGSKGTPEEREKEVAEASRILGLDFRGNLGFPDGGLADVPEQRLKLAQALRRLRPRVVFAPLEADRHPDHTAASRLAVAAVHLAGLRKAPLEGEPFRVERLFFYPGNHPFAPSFLVKISAFIDQWEAAVLAYRSQFTGEAASETVGPKGVEARKAMRRYWGNYLGVDYAEPFVSPLPVLYVPWSRA | not failed
6 | KWIFREPSRTDGDDVYALITECPPLDINSSYCNFLQATHFSKTCVLAEKDGDLAGFISGYQEPDEPNTLFIWQVAVSPRYRGKGLAFSMLTTLLERKNLLHIEFIETTITKANNASWSLFKKIDAQYGNQGQVTTFLDKESHFKGKHDTEYLYRIPL | failed
7 | MALRTLSTFPSLPRRHTTTRREPNLTVIYRNPTTSIVCKSIANSEPPVSLSERDGFAAAAPTPGERFLENQRAHEAQKVVKKEIKKEKKKKKEEIIARKVVDTSVSCCYGCGAPLQTSDVDSPGFVDLVTYELKKKHHQLRTMICGRCQLLSHGHMITAVGGNGGYPGGKQFVSADELREKLSHLRHEKALIVKLVDIVDFNGSFLARVRDLVGANPIILVITKIDLLPKGTDMNCIGDWVVEVTMRKKLNVLSVHLTSSKSLDGVSGVASEIQKEKKGRDVYILGAANVGKSAFINALLKTMAERDPVAAAAQKYKPIQSAVPGTTLGPIQINAFVGGEKLYDTPGVHLHHRQAAVVHSDDLPALAPQNRLRGQSFDISTLPTQSSSSPKGESLNGYTFFWGGLVRIDILKALPETCFTFYGPKALEIHAVPTKTATAFYEAKLGVLLTPPSGKNQMQEWKGLQSHRLLQIEINDAKRPASDVAISGLGWISIEPIRKTRGTEPRDLNEAEHEIHICVSVPKPVEVFLRPTLPIGTSGTEWYQYRELTDKEEEVRPKWYF | failed
8 | MTETIPVFDGHNDFLLRLLRNPANRETIWLKGDGTGHLDLPRMKEGGFAGGFFAIYVPSPQAHDAAHFEAMMDAPPFELPLPPMIRAEQAQPVALAMAGHLLWMERAARGRFKVCRTAAEVRSCHADGIVSGIMHMEGAEAIGADLDALHLFHSLGLRSLGPVWSRPTVFGHGVPFRFPGSPDTGEGLTEAGRRLVAECNRLKIMLDLSHLNEKGFDDVARLSDAPLVATHSNAHAVTPSTRNLTDRQLAMIRESRGMVGLNFATSFLREDGRRSAEMGWEPVLRHLDHLIDRLGEDHVGMGSDFDGATIPQGIADVTGLPALQAAMRAHGYDEPLMRKLCHENWYGLLERSWG | not failed
9 | MDILKTLQKHLGDVETSDFTTNAIEKSQQIAKFSRDMKNINESVGALQVLQIACKKLFNKSMGLEDKDALQASIIKQELREIVENCQFLASPLFDTQLNIAINDEIFSMIVVNPLDLLENVGEFQAYLEEKLNEIKELLGYLSESLSNPKAFMPSFSNQSLKDLLSDNLRA | failed
10 | MGGATSGAVSSLNSRLALAHTPLLNTPQKPVDCRPHRTRTSDSAPMELHYRITPAHTEAWIAEPLKQELLKDDQQHVRAMSTFARWQSRFIGPVMFTLCLIGGCLSIYFPERNFTAEKVIAMVAFALIFIPLWWRFSGRWIKHLQARIAATPIKPQAPLRGLSQRLIETRLRAVEGTYCLNFDDQGFTLLNARGGQSSLAWKQIASVQEIPDFYLVADADMERQGVACFIAKHTDLMPTEAYQQGLQAFLSQCPAALPAH | failed
11 | MTRQGWLVPCLSHGKDDQLQDELSELSKAYRKKFQTDLHTKSGDIIDPSGEFLYVYLDEENYRICRQSMVLVSNAPDGLIATTLEPYSDSYTFRQVREQLQAFSGDGGRINYSRNEHSSSYFLTIQASNEFKHVGAVRNTFGQSKDIWKRRMPDASQPLDYHLIAVGCSAFLPEAALDDVESDGAVLEHHHHHH | not failed
12 | MYLKHFGLGQAPFSLTPNTGFFFGLSPHVEALQVLQTALQTGEGFIKVTGEVGTGKTLICRKLINELPQGFHCAYLPNPYLTPAELRWAVANELGLKYTSEIDQQQLTGLIQQQLLALSTHGHAIVLVLDEAQALPDESLEALRLFTNLETESRKLLQVVLFGQPELDERLKRQAFRQLRQRITFSYNLRPLTWDETDAYIRYRLAVAGHAGQALFSPKITRKIAQASRGIPRLINILAHKALMLSFGEGATQVRMSHLKGAICDTEDASPTRVQKWSTYFAIAFMVFAVAMLALLLSGTNFLQWWGDGA | failed
13 | MSSTSFTDLLGSSGVDCYEDDEDLRVSGSSFGGYYPERTGSGLPKFKTAQPPPLPISQSSHNFTFSDYLDSPLLLSSSHSLISPTTGTFPLQGFNGTTNNHSDFPWQLQSQPSNASSALQETYGVQDHEKKQEMIPNEIATQNNNQSFGTERQIKIPAYMVSRNSNDGYGWRKYGQKQVKKSENPRSYFKCTYPDCVSKKIVETASDGQITEIIYKGGHNHPKPEFTKRPSQSSLPSSVNGRRLFNPASVVSEPHDQSENSSISFDYSDLEQKSFKSEYGEIDEEEEQPEMKRMKREGEDEGMSIEVSKGVKEPRVVVQTISDIDVLIDGFRWRKYGQKVVKGNTNPRSYYKCTFQGCGVKKQVERSAADERAVLTTYEGRHNHDIPTALRRS | failed
14 | MTAEQLIEKYKNPAIIGLGVIVALIAAFVFYKYNQSENNTVAQEEMYKAVFYFEQDSLELALKGDEAKGIRGLQEVADEYSGTKAGKLAAFYTGIIYLKQAKFQESIDYLEKFSSNEGILQARSWAAMGDAYSELNDLENAIKYYKKAADHKGNEQITPTYLMKLGLAYELNNNWKDASDAYDKIITDYPKSQDVADAKKYKAKAQAALSASE | failed
15 | MFAQLVMGPAGSGKSTYCHALQQHGEIVGQLVHVVNLDPAAERFEYKPVADIRDLITVTDVAEELSLGPNGSLVYCMEYLLEDQDWLEQVLSETAEDDYLVFDMPGQIELYTHFECVRQFVYVLQSQFSMRVCSIFLLDAQFLADASKFFAGSLTAMAAMLHLGLPHLNVLSKADLLRHRIEHRDNTLEPLSSDAEAPNSDEALDEFLERFLNPDIQSLVSELSEQMDTRYRALNERIGALLEDYAIVQFVPYSATDEDSIGELLLRANLLLQYDDDRDVRIHPELD | failed
16 | MTTFSHSSTTPSVSVTTASGNNQSQLVATPVPDEQRISFWPQHFGLIPQWVTLEPRVFGWMDRLCEDYCGGIWNLYTLNNGGAFIAPEPDEDDGETWILFNAMNGNRAEMSPEAAGIAACLMTYSHHACRTECYAMTVHYYRLRDYALQHPECSAIMRIID | failed
17 | MRYEKMNQEILAAIGGEENIQSVVHCATRLRFVLKDESKADDKKAEAIDGILQVVKKGGQYQLVIGNNVEDVYDDLINMIHIETSDSNKPKKKQNLFDAIIGAITGSIAPAIPLLAGAGMGKVLLLILTICHVLSDKSQTYQLLNLIFDTGYYFMPAYVGFSAAKIFNTDRMLGAFIGLMTVHPSWVQIVTTNKPFHFLGLPVPLVQYSSTLITAILSVWIMSYIYKFVRKITPGMVKVFMEPMLTMLITGPLVFLIIGPISNWISEGIGFIAMWLFRNAGVIAIPILAALYPWLVSIGIHKALSPISIQLVATQGFDPIIRVVALCSNMSQAAASLAVGLKTKNKKLKSLALSSSVTAYLGGITEPALFGVNLRLKKPMYGAMIGGAIAGIVASFMKLKAFIYVTPAFLSLPMWISKTENFVVQAIIVIIVASVATFIATWIIGFDDPIDEDQVKNAKKEEKKNFDKDHKKHELHAPVKGQLEDISKVADPTFASGVMGKGIAIVPSEGKIFAPEDGVVTAIFDTHHAIGLHLSNDADVLIHVGIDTVEMKGKGFKQLVQKGDKVTAGQELLDFNIDEIKKNGYDPTVVMIVTNSKDFLEVLTVLKDKDATKEVTNQDNVIILA | failed
18 | MEPGLDGGYLLLGVDWAINDKGDTVYRPVGLPDPDKVQRDLASQCASMLNVALRPEMQLEQVGGKTLLVVYVPEADVTHKPIYKKATGLPGGAYRRIGSSDQRCVLEHHHHHH | failed
19 | PPGPCLPPRLQGRPKAKEIQLRWGPPLVDGGSPISCYSVEMSPIEKDEPREVYQGSEVECTVSSLLPGKTYSFRLRAANKMGFGPFSEKCDITTAPG | not failed
